Literature values in US12090208B2, “Peptide drug improvement using vitamin B12 and Haptocorrin binding substrate conjugates” (SYRACUSE UNIVERSITY, priority 2017, dated 2024).

Settings: in vivo

B1: haptocorrin: serum B12 binding and transport protein (protein, UniProt P20061 24-433, looked up)
Transcobalamin-1: EICEVSEENYIRLKPLLNTMIQSNYNRGTSAVNVVLSLKLVGIQIQTLMQKMIQQIKYNVKSRLSDVSSGELALIILALGVCRNAEENLIYDYHLIDKLENKFQAEIENMEAHNGTPLTNYYQLSLDVLALCLFNGNYSTAEVVNHFTPENKNYYFGSQFSVDTGAMAVLALTCVKKSLINGQIKADEGSLKNISIYTKSLVEKILSEKKENGLIGNTFSTGEAMQALFVSSDYYNENDWNCQQTLNTVLTEISQGAFSNPNAAAQVLPALMGKTFLDINKDSSCVSASGNFNISADEPITVTPPDSQSYISVNYSVRINETYFTNVTVLNGSVFLSVMEKAQKMNDTIFGFTMEERSWGPYITCIQGLCANNNDRTYWELLSGGEPLSQGAGSYVVRNGENLEVRWSKY
half-life in blood: approximately 10 hours
